± gives the standard deviation of the averaged measurements.

From the supplement of paper PMC10126150 come the findings set out here.
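Also: ATP exposure 15 min at 22 °C before imaging.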

For the data set, the system named is ATP. In words: switch fluorescence ratio, 500 uM ATP over buffer (Cy3 cluster intensity, sum of 5 cycles each) (fold (ratio)); higher = stronger signal-on switching upon ATP binding; sequences stand for … in TCGTCGGCAGCGTCAGATGTGTATAAGAGACAGTTTTTTTTTTTTTTTTTTTTTTTTT…TC. As to conditions: aptamer strand: ATP DNA aptamer (quencher-CACCTGGGGGAGTATTGCGGAGGAAGG + anchor), 100 nM annealed; ATP concentration: 500 uM. A digest of the protocol:
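Five buffer/ATP imaging cycles were run on Cy3-labelled switching-strand clusters on a modified Illumina MiSeq flow-cell, with NaOH stripping and re-annealing between cycles. In each cycle, clusters annealed to 100 nM quencher-labelled ATP aptamer were imaged in selection buffer, then after 15 min with 500 uM ATP at 22 °C. Per cluster, the fluorescence ratio is summed target-cycle over summed buffer-cycle Cy3 intensity, averaged per switch-domain sequence. Only clusters within 100-1000 RFU were kept.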
Turning to AATGTTTCGG, the switch fluorescence ratio worked out at 0.977 ± 0.022.
The result for CGGCAATGGG reads 1.77 ± 0.15.
With CCACATTGCT, the switch fluorescence ratio came to 1.21 ± 0.017.
Regarding AGGGGAATAA, the switch fluorescence ratio is 0.997 ± 0.015.
The value for GAATAGCCCA was 0.9711 ± 0.0012; that for ATTGTTATCG was 1.02 ± 0.14; that for GAATTTAGGT was 0.996 ± 0.028.
The value for AGACAGAGGG was 0.988 ± 0.012; that for GAGGCGCGGA was 1.01 ± 0.013; that for TGGCCTGGGG was 0.979 ± 0.025.
The result for ATACCTTA reads 1.02 ± 0.038; that for GTGCCCTGTA, 0.9704 ± 0.0046.
As for TGGGAAGAGA, the switch fluorescence ratio was 1.02 ± 0.018.
As to GATTATAAGT, the switch fluorescence ratio is 0.99 ± 0.017.
The result for GCTGTTTTCA reads 0.984 ± 0.048; that for CGGATGTGCA, 0.981 ± 0.018.
The value for GCGCTGTTGG was 0.9996 ± 0.0035; that for CCACATTGTA was 1.01 ± 0.018; that for TGCTAACTCG was 1 ± 0.018.
The result for TTGTTACTTT reads 1 ± 0.017.
Consider CGAGTTGGAC, for which the switch fluorescence ratio is 1.0038 ± 0.00091.
The result for CGTGGGATTG reads 1.012 ± 0.004.
GTATTTTTGC: the switch fluorescence ratio turned out to be 1.02 ± 0.024.
The result for GGAGCGAGAG reads 3.37 ± 0.28; that for TGCTGGTCGG, 0.985 ± 0.035; that for TCGGTATTGG, 1.09 ± 0.1.
The result for CAGGAGTTGA reads 1.01 ± 0.025; that for ATGCGGTAGG, 1.01 ± 0.016.
The value for TTCAAATCGT was 0.991 ± 0.013; that for GATTGGGACT was 0.975 ± 0.027; that for TATGCCTTTT was 1.008 ± 0.0042.
Consider TTTGTAAAAG, for which the switch fluorescence ratio was found to be 0.977 ± 0.033.
As to CTGTTCGGCG, the switch fluorescence ratio worked out at 0.979 ± 0.042.
Regarding TTAAAGGCAG, the switch fluorescence ratio came out at 0.989 ± 0.025.
The result for AGGGTTTGGT reads 0.982 ± 0.02; that for GTTAGCCGAA, 1.05 ± 0.032; that for AGGTCCCAGC, 1 ± 0.02.
On to TAGGACGAGG, for which the switch fluorescence ratio was determined as 1.02 ± 0.021.
The value for AAACGGCTCT was 0.967 ± 0.031.
The result for TGGGACCGCG reads 1.03 ± 0.084.
The value for TAAGGGTGGT was 1.01 ± 0.027; that for AGGACGTAGC was 1.09 ± 0.018; that for CTTTGAGC was 1 ± 0.064.
As to ATTAAATTAA, the switch fluorescence ratio was 1.034 ± 0.01.
As to GGATTGGTCC, the switch fluorescence ratio came out at 1.14 ± 0.16.
The result for TTTTGGGAAA reads 0.989 ± 0.044; that for GATCTTTCGT, 1.01 ± 0.031.
The value for GGACAAAAAC was 1.02 ± 0.013.
The result for TTTCGGGTAA reads 1.34 ± 0.47; that for AGGCCAGGCG, 1.02 ± 0.051; that for CCCGATGCGC, 1.42 ± 0.51.
TCTGAGGTTT: the switch fluorescence ratio was determined as 1.04 ± 0.029.
For the sequence TCCGGGGTTT, the switch fluorescence ratio turned out to be 1.02 ± 0.056.
The value for CCCTAGGTTT was 1.73 ± 0.79.
As to ACGAATTTGT, the switch fluorescence ratio turned out to be 1.03 ± 0.038.
The value for CACTGTCTGT was 0.98 ± 0.028; that for AGTGCGGGTC was 1.02 ± 0.012; that for ACATAAGGTA was 1.04 ± 0.03.
Regarding AAAAATGTTC, the switch fluorescence ratio amounted to 0.9814 ± 4.7e-05.
With GAGTGAGGTG, the switch fluorescence ratio worked out at 1.01 ± 0.1.
Regarding TGGGGATCTA, the switch fluorescence ratio was found to be 1.002 ± 0.006.
The result for GACTTACCAC reads 1.17 ± 0.052; that for AATATAGAAG, 0.984 ± 0.033.
The result for GGGGGGGAGC reads 1.01 ± 0.033.
For the sequence TTTACGCGGT, the switch fluorescence ratio amounted to 1.03 ± 0.015.
The value for TTTTGGTAGC was 1.01 ± 0.017; that for ATGGCTTAAG was 1.006 ± 0.0055.
